Substitutions are numbered along the chain they refer to. Numbers in names are those of the source.
T1: rHuman Erythropoietin R/Fc Chimera, CF (R&D Systems Cat#963-ER) (human, UniProt P19235 25-250)
T1 construct: Bought recombinant protein; also called EPO R; EPO R/Fc; Fc part of the bought chimera not given
T1 sequence (looked up): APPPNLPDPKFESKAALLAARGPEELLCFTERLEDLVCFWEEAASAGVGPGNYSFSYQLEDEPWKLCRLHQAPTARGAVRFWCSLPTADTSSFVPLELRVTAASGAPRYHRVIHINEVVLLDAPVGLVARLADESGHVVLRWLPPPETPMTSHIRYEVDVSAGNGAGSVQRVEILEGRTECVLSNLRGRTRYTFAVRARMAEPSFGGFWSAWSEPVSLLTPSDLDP

B1: Fab VH5-51_IGHD5-18*01>3_IGHJ4*01 G100K/G104T/G24A/S28R/G35V (KT ARV) & V3-4_IGLJ1*01 (Fab, V domains shown)
VH: EVQLVQSGAEVKKPGESLKISCKASGYRFTSYWIVWVRQMPGKGLEWMGIIYPGDSDTRYSPSFQGQVTISADKSISTAYLQWSSLKASDTAMYYCARRKYSYTYDYFDYWGQGTLVTVSS
VL: QTVVTQEPSFSVSPGGTVTLTCGLSSGSVSTSYYPSWYQQTPGQAPRTLIYSTNTRSSGVPDRFSGSILGNKAALTITGAQADDESDYYCVLYMGSGISYVFGTGTKVTVL
notes: Tested as Fab; CH1 with His6/Flag tags (plasmid A) and lambda CL (plasmid E) come from the expression vectors
B2: Fab VH5-51_IGHD5-18*01>3_IGHJ4*01 G100K/G104T (H:KT) & V3-4_IGLJ1*01 M94A (Fab, V domains shown)
VH: B1 VH with A24G, R28S, V35G
VL: B1 VL with M94A
notes: Fab; Expressed from Plasmid A (CH1, His6 and Flag tags) and Plasmid E (lambda CL); also called KT & M94A
B3: Fab VH5-51_IGHD5-18*01>3_IGHJ4*01 G100K/G104T/S28R (KT S28R) & V3-4_IGLJ1*01 (Fab, V domains shown)
VH: B1 VH with A24G, V35G
VL: B1 VL
notes: as for B1
B4: Fab VH5-51_IGHD5-18*01>3_IGHJ4*01 G100K/G104T (H:KT) & V3-4_IGLJ1*01 Y93A (Fab, V domains shown)
VH: B1 VH with A24G, R28S, V35G
VL: B1 VL with Y93A
notes: Fab; Expressed from Plasmid A (CH1, His6 and Flag tags) and Plasmid E (lambda CL); also called KT & Y93A
B5: Fab VH5-51_IGHD5-18*01>3_IGHJ4*01 G100K/G104T (H:KT) & V3-4_IGLJ1*01 S99A (Fab, V domains shown)
VH: B1 VH with A24G, R28S, V35G
VL: B1 VL with S99A
notes: Fab; Expressed from Plasmid A (CH1, His6 and Flag tags) and Plasmid E (lambda CL); also called KT & S99A
B6: Fab VH5-51_IGHD5-18*01>3_IGHJ4*01 G100K/G104T/G24L/S28R/G35V (KT LRV) & V3-4_IGLJ1*01 (Fab, V domains shown)
VH: B1 VH with A24L
VL: B1 VL
notes: as for B1
B7: Fab VH5-51_IGHD5-18*01>3_IGHJ4*01 G100K/G104T/G24T/S28R/G35V (KT TRV) & V3-4_IGLJ1*01 (Fab, V domains shown)
VH: B1 VH with A24T
VL: B1 VL
notes: Tested as Fab; CH1 with His6/Flag tags (plasmid A) and lambda CL (plasmid E) come from the expression vectors; also called H:KT TRV & L:wt
B8: Fab VH5-51_IGHD5-18*01>3_IGHJ4*01 G100K/G104T (H:KT) & V3-4_IGLJ1*01 S96A (Fab, V domains shown)
VH: B1 VH with A24G, R28S, V35G
VL: B1 VL with S96A
notes: Fab; Expressed from Plasmid A (CH1, His6 and Flag tags) and Plasmid E (lambda CL); also called KT & S96A

Experiments:
[1] = biological target: T2, Recombinant Human DLL4 (R&D Systems Cat#1506-D4/CF) (human, UniProt Q9NR61 27-524); assay: ECL (MSD) binding assay, Fab on immobilized recombinant human DLL4
T2 construct: also called rHuman DLL4; delta-like protein 4

[2] = biological target: T3, rHuman ErbB2/Fc Chimera, CF (R&D Systems Cat#1129-ER) (human, UniProt P04626 23-652); assay: ECL multispot (MSD) binding assay, antigen spotted on plate, Fab 0.04 uM;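 further: purified Fab incubated 1 h at 20 °C on antigen spots, detected via TAG-labelled antibody, ECL read against each well's blank, with signal-to-blank of at least 4 scored as binder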
T3 construct: Bought recombinant protein; also called human epidermal growth factor 2 receptor; Fc part of the bought chimera not given

[3] = biological target: T4, rHuman EGF R/Fc Chimera, CF (R&D Systems Cat#344-ER) (human, UniProt P00533 25-645); assay: as above
T4 construct: Bought recombinant protein; also called epidermal growth factor receptor; Fc part of the bought chimera not given

[4] = biological target: T5, rHuman Notch-1/Fc Chimera, CF (R&D Systems Cat#3647-TK) (human, UniProt P46531 19-526); assay: as above
T5 construct: Bought recombinant protein; Fc part of the bought chimera not given

[5] = biological target: T6, rHuman CD44/Fc Chimera, CF (R&D Systems Cat#3660-CD) (human, UniProt P16070 21-220); assay: as above
T6 construct: Bought recombinant protein; Fc part of the bought chimera not given

[6] = biological target: T7, rHuman P-Cadherin/Fc Chimera, CF (R&D Systems Cat#861-PC) (human, UniProt P22223 108-654); assay: as above
T7 construct: Bought recombinant protein; Fc part of the bought chimera not given

[7] = biological target: T1, rHuman Erythropoietin R/Fc Chimera, CF …; assay: as above
[8] = biological target: T8, Recombinant Human DLL4 (R&D Systems Cat#1506-D4/CF) (human, UniProt Q9NR61 27-524); assay: as above
T8 construct: Bought recombinant protein; also called delta-like protein 4; rHuman DLL4

Row | Binder | ECL signal [1] | ECL signal [2] | ECL signal [3] | ECL signal [4] | ECL signal [5] | ECL signal [6] | ECL signal [7] | ECL signal [8]
1 | B1 | 17400 |  |  |  |  |  |  | 
2 | B2 |  | 1200 | 1130 | 574 | 633 | 472 | 614 | 35300
3 | B3 | 6420 |  |  |  |  |  |  | 
4 | B4 |  |  |  | 725 | 700 | 497 | 602 | 8110
5 | B5 |  | 1320 | 956 | 674 | 670 | 500 | 693 | 18200
6 | B6 | 15300 |  |  |  |  |  |  | 
7 | B7 | 26100 |  |  |  |  |  |  | 
8 | B8 |  | 1280 | 1000 |  |  | 491 |  | 32300
